From patent US20210196823A1, “Methods of Treating Metabolic Disease” (Pfizer Inc., priority 2018, published 2021)

Columns and labels:
abdominal preadipocytes = assay: Western blot of phospho- and total SMAD1/5/8 in preadipocytes; type: cell-based, Human; conditions: abdominal cells, 30 minutes
Procedure: (a) Primary pre-adipocyte isolation. Human primary pre-adipocytes were prepared by isolation from white adipose tissue (WAT) biopsies taken under local anesthetic (1% lignocaine) by needle aspiration at the level of the umbilicus (ASAT) and from the upper-, outer-quadrant of the gluteal region (GSAT). Primary preadipocytes were isolated from ASAT and GSAT biopsies by mechanically mincing using scissors, washed twice with Hanks' buffered salt solution to remove contaminating blood, and then enzymatically digested in 1 mg/ml collagenase (Roche Applied Science) in Hanks' buffered salt solution in a shaking water bath (90 rpm) at 37° C. for 45 min. The digested tissue was centrifuged at 1000 rpm for 5 min at 4° C. The pellet containing stromal-vascular cells was resuspended in Dulbecco's modified Eagle's medium/F12 Ham's nutrient mixture (v/v, 1:1) containing 17.5 mM glucose and supplemented with 10% foetal calf serum, 0.25 ng/ml fibroblast growth factor, 2 mM glutamine, 100 units/ml penicillin and 100 μg/ml streptomycin. Cell stocks of APAD and GPAD cells were prepared and stored in liquid nitrogen for future studies. […]

Huh7 cells = assay: HAMP and ID1 qRT-PCR in Huh7 cells treated with BMPs with or without mouse ERFE; type: cell-based; conditions: a variety of different cell types
Procedure: (b) Gene expression microarray: Microarray analysis of Huh7 cells treated with mouse or human erythroferrone was carried out to test the activity of erythroferrone on the BMP/SMAD signalling pathway. Generally cell treatments were carried out according to the following protocol: Huh7 and HepG2 were cultured in Dulbecco's Modified Eagle's Medium—High Glucose (Sigma), supplemented with 10% Fetal Bovine Serum (Sigma), 1% Penicillin-Streptomycin (Sigma) and 1% L-Glutamine (Sigma), unless otherwise indicated. Cells were plated 24 h before treatments in 24-well (gene expression analysis) or 12-well (protein analysis) cell culture plates. At the time of treatment, cells were washed with PBS and fresh media was added.
(c) RNA isolation, cDNA synthesis and qRT-PCR: Suppression of several BMP-target genes: HAMP, ID1, ID3, SMAD6 and SMAD7 was further confirmed by qRT-PCR. Cells were lysed and RNA was isolated using the RNeasy Plus kit (Qiagen), followed by RNA quantification and quality assessment using Nanodrop (Thermo Fisher). cDNA was synthesized using the High Capacity RNA-to-cDNA kit (Applied Biosystems). Gene expression was assessed using quantitative real-time PCR with Taqman Gene Expression Master Mix and inventoried Taqman Gene expression assays (Applied Biosystems) specific for the genes of interest according to the manufacturer's instructions. […]

BMP2 = target: T1, BMP2 (Homo sapiens, UniProt P12643); assay: Biacore SPR, BMP run against ERFE A4-biotin on CM4 chip; type: binding; conditions: BMP 50 nM, MES-Tris buffer pH6.0, 25° C.
T1 sequence (P12643 283-396): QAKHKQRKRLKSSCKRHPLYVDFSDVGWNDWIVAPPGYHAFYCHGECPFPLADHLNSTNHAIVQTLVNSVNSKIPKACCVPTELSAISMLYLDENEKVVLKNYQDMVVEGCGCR
Text: (§1) Iron absorption is tightly regulated by erythropoietic demand via control of hepcidin expression. Erythropoietin (EPO) causes hepcidin suppression, at least in part by increasing synthesis of the hormone erythroferrone (ERFE). ERFE is produced by erythroblasts after bleeding or EPO treatment, and acts on hepatocytes to suppress hepcidin expression and increase iron availability. ERFE knock out mice fail to suppress hepcidin after phlebotomy and show delayed recovery from blood loss. Furthermore, serum ERFE concentrations are increased in humans after blood loss and EPO administration, and in β-thalassemia patients. Hepcidin expression is modulated via the BMP/SMAD signalling pathway. […] We sought to determine whether the mechanism by which ERFE suppresses hepcidin is through interaction with BMP. Binding constants were measure using Biacore SPR. BMPs 2, 4, 6 at 50 nM was run against ERFE A4-biotin amine coupled to CM4 sensor chip in MES-Tris buffer pH6.0, 25° C.

BMP6 = target: T2, BMP6 (Homo sapiens, UniProt P22004); assay: as above; type: binding
T2 sequence (P22004 375-513): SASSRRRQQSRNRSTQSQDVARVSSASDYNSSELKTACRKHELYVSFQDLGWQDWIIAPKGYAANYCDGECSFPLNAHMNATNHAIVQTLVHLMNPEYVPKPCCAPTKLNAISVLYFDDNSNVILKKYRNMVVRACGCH
Text: as §1

BMP4 = target: T3, BMP4 (Homo sapiens, UniProt P12644); assay: as above; type: binding; conditions: BMP 50 nM, MES-Tris buffer pH6.0, 25° C.
T3 sequence (P12644 293-408): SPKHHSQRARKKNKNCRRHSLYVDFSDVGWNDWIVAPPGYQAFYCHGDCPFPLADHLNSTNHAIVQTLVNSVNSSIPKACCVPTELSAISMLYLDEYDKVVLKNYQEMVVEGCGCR
Text: as §1

Kd of ERFE binding to BMP2 (BMP2): nanomolar
Kd of ERFE binding to BMP6 (BMP6; BMP 50 nM, MES-Tris buffer pH6.0, 25° C.): nanomolar
tightness of ERFE binding among BMPs 2, 4 and 6 (BMP6; SPR (Biacore)): most tightly
Kd of ERFE binding to BMP4 (BMP4): nanomolar
B1: ERFE: hormone erythroferrone (FAM132b); recombinant protein, species or construct not stated at the place (SPR used ERFE A4-biotin) (protein)
chain: AAGLGSPEPGAPSRSAAAAEPPPGNELPRGPGESRAGPAARPPEPTAERAHSVDPRDAWMLFVRQSDKGVNGKKRSRGKAKKLKFGLPGPPGPPGPQGPPGPIIPPEALLKEFQLLLKGAVRQRERAEPEPCTCGPAGPVAASLAPVSATAGEDDDDVVGDVLALLAAPLAPGPRAPRVEAAFLCRLRRDALVERRALHELGVYYLPDAEGAFRRGPGLNLTSGQYRAPVAGFYALAATLHVALGEPPRRGPPRPRDHLRLLICIQSRCQRNASLEAIMGLESSSELFTISVNGVLYLQMGQWTSVFLDNASGCSLTVRSGSHFSAVLLGV
BMP2-induced SMAD1/5/8 phosphorylation on addition of ERFE (abdominal preadipocytes): diminished
inhibitory action on BMP2 and 4 and BMP2/6 heterodimer (Huh7 cells): Inhibitory action is also seen
